Results on eight molecules are retold here after patent US20240368233A1 (University of Washington, published 2024).

B1: DFA-1 (designed binder)
chain: TTNFHLINGSEEARQLIEKAVRAISKKEGTEVHFEKSDGTLEIRVKNLHEKREREIKKVIELILEVAAAERIVRERPGSNLAKKALEIILRAAEELAKADVDAALEAAVRAAEKVVREQPGSNLAKKALEIILRAAEELAKLPDPEALKEAVKAAEKVVREQPGSNLAKKALEIILRAAAALANLPDPESRKEADKAADKVRREQPGSELAVVAAIISAVARMGVKMELHPSGNEVKVVIKGLHIKQQRQLYRDVREAAKKAGVEVEIEVEGDTVTIVVRGGSHHWGSGSHHHHHH
notes: Bivalent connector
B5: DFB-1 (designed binder)
chain: NTHFIVVHGSEDAAQLAEELVREISKKEGTEVRFEKKDGLLSIEVKNLSEERQREIQKALQLVQDVANAERVVRERPGSNLAKKALEIILRAAEELAKLDLKASLKAAVRAAEKVVREQPGSNLAKKALEIILRAAEELAKLPDPEALKEAVKAAEKVVREQPGSNLAKKALEIILRAAAALANLPDPESRKEADKAADKVRREQPGSELAVVAAIISAVARMGVKMELHPSGNEVKVVIKGLHIKQQRQLYRDVREAAKKAGVEVEIEVEGDTVTIVVRGGSHHWGSGSHHHHHH
notes: Bivalent connector

The target in the series “DFB-1” is B5. Briefly: SEC of mixed components; linear tetramer listed in Table 6, neighbours in the chain. How it is done: (§1) Complexes and individual components were diluted in 20 mM Tris pH 8.0, 100 mM NaCl. After o/n equilibration of the mixtures at room temperature or 4 degrees C., 500 ul of sample was injected onto a Superdex™ 200 10/300 increase GL (dimers, linear assemblies) or Superose™ 6 increase 10/300 GL (symmetric assemblies) (all columns from GE healthcare) using the absorbance at 230 nm or 473 nm (for GFP tagged components) as read-out. Dimers were mixed at monomer concentrations of 5 μM or higher. Trimer and ABCD tetramer mixtures contained 5 μM of the bivalent connector, and 7.5 μM of each terminal cap (lower absolute concentrations with the same ratios were used for some trimers). ABCA tetramer mixtures contained 5 μM per bivalent connector and 15 μM terminal cap. The hexamer mixture contained 3 μM of components C and D, 3.6 μM of B and E, and 4.4 μM of A and F. The branched assembly shown in FIG. 4A contained 2.8 μM of the trivalent connector and 4 μM of each cap. For the exchange experiment shown in FIG. 5A, the ABC trimer was preincubated at concentrations of 6 μM B and 9 μM each of A and C. C′ was then added to reach a final concentration of 2 μM B, 3 μM each of A and C, and 6 μM C′.

The next series has as its target T1, DFB0.
T1 construct: Bivalent connector
T1 chain: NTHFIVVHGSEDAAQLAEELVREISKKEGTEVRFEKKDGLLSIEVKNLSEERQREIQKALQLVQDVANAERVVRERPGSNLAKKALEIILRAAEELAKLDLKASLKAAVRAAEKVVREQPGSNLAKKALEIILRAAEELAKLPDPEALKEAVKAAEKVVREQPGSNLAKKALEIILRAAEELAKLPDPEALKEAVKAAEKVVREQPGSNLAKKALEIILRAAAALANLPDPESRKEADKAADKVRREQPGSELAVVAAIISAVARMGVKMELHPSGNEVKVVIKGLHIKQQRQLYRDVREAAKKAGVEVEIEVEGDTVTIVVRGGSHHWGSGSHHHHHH
The description is as above. The method, then: as §1

Series [1] concerns the molecule itself. Kind of series: SEC and native MS (self-association).
Series [2] concerns the molecule itself. Kind of series: BLI conditions (self-association).
The target of a further series is T2, 101B62.
T2 construct: also called LHD101B62
T2 chain: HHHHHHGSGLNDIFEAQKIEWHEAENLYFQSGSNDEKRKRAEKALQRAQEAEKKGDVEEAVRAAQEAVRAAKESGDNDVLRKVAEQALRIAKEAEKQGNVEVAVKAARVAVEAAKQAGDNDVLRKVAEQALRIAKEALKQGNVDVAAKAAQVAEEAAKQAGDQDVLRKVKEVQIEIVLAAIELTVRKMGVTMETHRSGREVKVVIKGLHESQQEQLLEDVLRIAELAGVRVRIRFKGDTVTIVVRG
Briefly: SEC of mixed components; linear tetramer listed in Table 6, neighbours in the chain. How it is done:
as §1

Series [3] deals with the molecule itself. Kind of series: SEC titration (Superdex 200, normalised A230) of 274B53 and 29B53 alone; self-association.
The target of the series “DFA-1” is B1. Kind of series: SEC of mixed components; trimer listed in Table 6. The method, then:
as §1

Series [4] concerns the molecule itself. Kind of series: SEC titration (self-association).
The next series has as its target T3, TF3.
T3 construct: Trivalent connector
T3 chain: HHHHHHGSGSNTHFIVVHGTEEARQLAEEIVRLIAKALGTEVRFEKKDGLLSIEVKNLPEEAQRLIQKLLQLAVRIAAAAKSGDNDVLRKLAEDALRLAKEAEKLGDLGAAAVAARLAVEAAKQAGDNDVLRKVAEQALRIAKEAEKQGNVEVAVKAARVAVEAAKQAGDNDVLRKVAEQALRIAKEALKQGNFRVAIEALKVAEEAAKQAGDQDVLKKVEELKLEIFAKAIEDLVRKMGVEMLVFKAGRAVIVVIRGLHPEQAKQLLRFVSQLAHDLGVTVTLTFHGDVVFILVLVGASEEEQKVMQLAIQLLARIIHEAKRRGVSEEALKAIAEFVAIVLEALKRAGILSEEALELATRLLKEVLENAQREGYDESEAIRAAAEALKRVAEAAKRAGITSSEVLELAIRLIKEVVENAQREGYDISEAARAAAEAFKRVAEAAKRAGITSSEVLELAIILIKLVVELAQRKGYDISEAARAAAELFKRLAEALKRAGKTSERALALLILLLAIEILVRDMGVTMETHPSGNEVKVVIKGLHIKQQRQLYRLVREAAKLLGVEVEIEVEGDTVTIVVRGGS
Kind of series: SEC of the trivalent connector TF3, its three caps and the full mixture, with SDS-PAGE of the fractions; components named in the legend.

Series [5] concerns the molecule itself. Kind of series: SEC titration of the protomer alone at several injection concentrations (Superdex 200, normalised A230); self-association.
For the next series, the target named is T4, DF275A-1.
T4 construct: Bivalent connector
T4 chain: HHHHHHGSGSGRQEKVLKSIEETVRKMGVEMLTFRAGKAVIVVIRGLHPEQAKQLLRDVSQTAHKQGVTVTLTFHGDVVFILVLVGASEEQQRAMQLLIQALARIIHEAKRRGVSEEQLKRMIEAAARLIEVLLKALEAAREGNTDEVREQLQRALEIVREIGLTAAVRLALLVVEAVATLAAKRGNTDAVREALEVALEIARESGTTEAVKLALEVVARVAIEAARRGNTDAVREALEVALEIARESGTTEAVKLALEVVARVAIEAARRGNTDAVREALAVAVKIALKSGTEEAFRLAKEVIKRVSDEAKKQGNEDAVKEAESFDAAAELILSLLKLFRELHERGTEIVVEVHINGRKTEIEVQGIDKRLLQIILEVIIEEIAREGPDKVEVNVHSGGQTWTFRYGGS
Briefly: SEC of partial and full mixtures followed at 473 nm (GFP on component C) and negative-stain EM; components as named for the hexamer in the legend of FIG. 16C and in Table 6. How it is done:
as §1
SEC peak fractions were concentrated prior to negative stain EM screening. Samples were then immediately diluted 5 to 150 times in TBS buffer (25 mM Tris pH 8.0, 25 mM NaCl) depending on sample concentration. […]

As for B1, the binding result with DFB-1 and with DFB0 was “binds” in each case.

B2: RingA (designed binder)
chain: GSSIFLLSNVSEDAAQLAEELVREISKKEGTEVRFEKDDGFLTIEVKNLSEERLREIAKALQLIVDVANAERVVRERPGSNLAKKALEIILRAAEELAKLDLKASLKAAVRAALKVVAEQPGSNLAKKALEIIQRAAEELAKLPDPEAQKEAQLAAELVRAAELAKSPDPEDLKEAVRLAEEVVRERPGSNLAKAALAIILRAAEELAKLPDPEALKEAVKAAEKVVREQPGSNLAKKALEIILRAAAALANLPDPESRKEADKAADKVRREQPGSELAVVAAIISAVARMGVKMELHPSGNEVKVVIKGLHIKQQRQLYRDVREAAKKAGVEVEIEVEGDTVTIVVRGGGSWGLEHHHHHH
notes: Component of the two-component C4 ring (four copies of each in the ring); also called 29B_53_101A
For the molecule B2, the binding result in [1] is reported as “no binding”.

B3: RingB (designed binder)
chain: GTWQWVLINISEEARQLIEKAVRAISKKEGTEVHFEKDDGVLHIRVKNLHEKRAREIHKVAKLILEVAAAERIVRERPGSNLAKKALEIILRAAEELAKADVDAALEAAVRAAEKVVREQPGSNLAKKAMEIILRAAEELAKLPDPEAQKEAAKAIARRVAAKVEELKRSGTSEDEIAEEVAREISEVIRTLKESGSSYEVICECVARIVAEIVEALKRSGTSEDEIAEIVARVISEVIRTLKESGSSYEVICECVARIVAEIVEALKRSGTSEEEIAEIVARVIQEVIRTLKESGSSYEVIRECLRRILEEVIEALKRSGVDSSEIVLIIIKIAVAVMGVTMEEHRSGNEVKVVIKGLHESQQEELLELVLRAAELAGVRVRIRFKGDTVTIVVRGGGSLEHHHHHH
notes: Component of the two-component C4 ring (four copies of each in the ring); also called 29A_53_4_101B
Consider B3, for which, in [1], the binding result is given as “no binding”.

B4: LHD29 chainB (designed binder)
chain: SSIFLLSNVSEEARQRAEEYVRRISKKEGTEVRFEKDDGFLTIEVKNLSEERLREIAEYLWRVAV
notes: also called LHD29B; 29B
As for B4, the binding result in [2] is recorded as “binds”.
As to B5, the binding result with 101B62 is “binds”.

B6: 274B53 (designed binder)
chain: NTHFIVVHGSEDAAQLAEELVREISKKEGTEVRFEKKDGLLSIEVKNLSEERQREIQKALQLVQDVANAERVVRERPGSNLAKKALEIILRAAEELAKLDLKASLKAAVRAAEKVVREQPGSNLAKKALEIILRAAEELAKLPDPEALKEAVKAAEKVVREQPGSELAKKALEIIERAAEELKKSPDPEAQKEAKKAEQKVREESGSHHWGSGLNDIFEAQKIEWHEGSHHHHHH
notes: also called LHD274B DHR53 stop
Consider B6, for which the binding result (in series [3]; with DFA-1) was “binds” throughout.

B7: LHD101 chainB (designed binder)
chain: GRQEKVLKSIEETVRKMGVTMETHRSGNEVKVVIKGLHESQQEQLLEDVLRTAEKQGVRVRIRFKGDTVTIVVRE
notes: also called LHD101B
With B7, the binding result in series [4] was “no binding (tested: above 100 µM)”.

B8: 275B (designed binder)
chain: GGSDVEWRYTNISEETQQKSAEFVLEIALRAGTGVTFTTRQGELQIQVHNLDELLAIAMLCYTLGLLLGDHRVQELAKRAVEAWERGDEERVKKLLIEALKRLVETAEEVVRERPGSNLAKLALEIILRAAEALARAEDPESLKEAVKAAEKVVREQPGSNLAKKALEIILRAAEELAKLPDPEALKEAVKAAEKVVREQPGSELAKKALEIIERAAEELKKSPDPEAQKEAKKAEQKVREERPGSGGSGSHHWGSGSHHHHHH
notes: also called LHD275 B; LHD275B
As to B8, the binding result (with TF3; in series [5]; with DF275A-1) was “binds” in each case.
